We go through one molecule from article doi:10.1101/2023.01.09.523197.

For this series, the target named is GlnR;RNAP holoenzyme (Mycobacterium …, UniProt O53830;P9WGZ1;P9WGY9;P9WGY7;P9WGY5;P9WGI1 1-255;1-347;1-1178;1-1316;1-110;1-528, |). Description: cryo-EM.

B1: amtB scaffold (dsDNA)
DNA 1: CTTCGTCACGGCGGCGAAACAACGAGGGGCTTCCACCGAAACCGCGCTGCGTTATAATGGGAGCTGTCACGGATGCA
DNA 2: TGCATCCGTGAGTCGAGGGTAATAAACGCAGCGCGGTTTCGGTGGAAGCCCCTCGTTGTTTCGCCGCCGTGACGAAG
As for B1, the binding result is reported as “binds”.
